The source of these data is patent publication US20120101255A1 (published 2012).

In experiment [1] the target is Cx43 expressed in N2a (neuroblastoma) cells. Description: cell-based or functional assay.
The target in experiment [2] is T1, Recombinant Cx43CT (carboxyl terminal domain of rat connexin43, residues 255-382, preceded by GPLG) (rat, UniProt P08050 255-382).
T1 construct: range 255-382; Made as a GST fusion in E. coli and cleaved from GST; 15N-labelled for NMR; also called recombinant CT; carboxyl terminal domain of Cx43
In words: SPR, Cx43CT immobilised, peptide 250 µM and higher. As to the method: II: Applications to Biological Systems,” Biochim. Biophys. Acta 1331(2):131-152 (1997), which is hereby incorporated by reference in its entirety). Specific peptides were presented and, when feasible, dissociation constants (KD) were calculated from the time course of binding and unbinding of the ligand, using a 1:1 (Langmuir) association and dissociation kinetic model (Biacore software package). In both phases (association and dissociation), the first 5-8 seconds of recording were not included in the fit, to avoid artifacts resulting from peptide distribution within the flow cells (Lang et al., “Surface Plasmon Resonance as a Method to Study the Kinetics and Amplitude of Protein-protein Binding,” in PRACTICAL METHODS IN CARDIOVASCULAR […] 936-947 (Stefan Dhein, Friedrich Wilhelm Mohr & Mario Delmar eds., 2005), which is hereby incorporated by reference in its entirety).
Phage display allows for the rapid screening of thousands of peptides, but the characteristics of binding cannot be properly defined. Furthermore, the peptides are part of a capsid protein, which may affect the ability of the peptide to properly interact with the target protein. […] Higher concentrations of the peptide were tested but an asymptotic maximum response could not be detected.

T1 sequence (P08050 other isoform, or with tags, fused parts or gaps limits assumed): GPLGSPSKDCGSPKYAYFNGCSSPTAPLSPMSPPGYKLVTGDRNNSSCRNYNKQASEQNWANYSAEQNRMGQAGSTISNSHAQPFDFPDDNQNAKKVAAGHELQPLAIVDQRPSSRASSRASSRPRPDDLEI

SDDLRSPQLHNGGGSAVPFYSHSHMVRRKPRNPR [RXP-E]: in experiment [1], the “junctional conductance (Gj) relative to control during octanol superfusion, RXP-E 0.1 mM in the pipette” value was 57.6 % of control and the “junctional conductance (Gj) relative to control with pipette solution at pH 6.2, RXP-E in the pipette” value was 57 % of control.

B1: RXP4 (peptide)
peptide: RRPPYRVPPKLF
notes: Synthetic 12-mer from the non-biased phage display screen
Take B1: in experiment [2], the binding result is reported as “binds”.
